Where no end group is shown, it is not given here.
Columns and labels:
rhGH = biological target: T1, rhGH (Homo sapiens, UniProt P01241); experiment: Equilibrium dialysis of GHBP peptides against rhGH (12-14 kDa MWCO membrane, MICRO-BCA read-out of lower chamber); format: binding; details: 1:1 ratio of rhGH:peptide; 0.25 mg/ml hGH stock; starting peptide 11.36 uM; 37° C., 24 hours
T1 construct: purchased Bresagen, Adelaide, Australia
Procedure: Equilibrium Dialysis: High Throughput Equilibrium Dialysis was performed using the 96-well Micro-Equilibrium Dialysis Device HTD (HTDialysis, LLC, CT, USA) according to the supplier's directions. The dialysis membrane was a SPECTRA/POR cellulose ester membrane. We tested a 3.5-5 kDa Molecular Weight Cut-off (MWCO) SPECTRA/POR membrane and a 12-14 kDa Molecular Weight Cut-off (MWCO) SPECTRA/POR membrane for their ability to allow peptide equilibration. Peptides were added to the upper chamber of each well of both a 3.5-5 kDa MWCO and a 12-14 kDa MWCO membrane and incubated at 37° C. with shaking at 200 rpm for 24 hours. Concentration of the peptide in the upper and lower chamber was assayed using MICRO-BCA Assay (Pierce) according to the supplier's directions.
We then confirmed the ability of the 12-14 kDa MWCO membrane to retain the hGH. Lyophilized recombinant hGH (Bresagen, Adelaide, Australia) was dissolved in phosphate-buffered saline (PBS) plus 0.05% sodium azide. One-hundred uL of a 25 mg/mL solution plus 100 uL of PBS were added to the upper chamber of the micro-dialysis device fitted with a 12-14 kDa MWCO membrane and incubated at 37° C. with shaking at 200 rpm for 24 hours. Concentration of hGH in the upper and lower chamber was assayed using MICRO-BCA Assay (Pierce) according to the supplier's directions. […] We used the 12-14 kDa MWCO membrane for our binding assays.
The upper chamber of each well received 100 uL of 0.25 mg/ml hGH and 100 uL of a 22.72 uM peptide solution. The lower chamber of each well received 100 uL of buffer and 100 uL of a 22.72 uM peptide solution. Thus, the starting concentration of peptide in both the upper and lower portion of each well was 11.36 uM. Plates were incubated at 37° C., with shaking at 200 rpm for 24 hours. […] The assay was configured with a 1:2 sample: working reagent ratio and incubated 45° C. for 4 hours and read in a spectrophotometer at 562 nm. Concentrations of peptide in the lower chamber were determined based on the equations generated by the standard curves for each peptide. […]

[1] = cited from earlier work

T1 sequence (P01241 27-217): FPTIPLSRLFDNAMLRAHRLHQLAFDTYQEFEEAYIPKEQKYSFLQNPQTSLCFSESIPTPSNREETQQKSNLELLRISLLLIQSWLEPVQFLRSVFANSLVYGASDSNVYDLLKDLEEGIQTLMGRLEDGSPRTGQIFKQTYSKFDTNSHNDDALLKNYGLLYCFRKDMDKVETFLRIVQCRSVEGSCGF

Substance: R-R-N-T-Q-E (RRNTQE; listed as Homo sapiens) [Peptide 3, hGHBP fragment Arginine-70 to Glutamate-76]
- concentration of peptide in the lower chamber in the presence of rhGH (binding to rhGH) (rhGH): substantially reduced

Substance: hGH: Human growth hormone (somatotropin or somatropin), a peptide hormone; recombinant hGH (Bresagen) was used in the binding assays
- half-life in the bloodstream [1]: about fifteen

Substance: S-P-E-R-E-T-F-S (SPERETFS; listed as Homo sapiens) [Peptide 1, hGHBP fragment Serine-40 to Serine-47]
- concentration of peptide in the lower chamber in the presence of rhGH (binding to rhGH) (rhGH): substantially reduced

Substance: TSIWIPYCIGKCFSVDEIVQPD (TSIWIPYCIGKCFSVDEIVQPD; not fully specified; printed as Thr-Ser-Ile-Trp-Ile-Pro-Tyr-Cys-Ile-Gly-Lys-Cys-Phe-Ser-Val-Asp-Glu-Ile-Val-Gln-Pro-Asp; cysteine pairing not given here; listed as Homo sapiens) [Peptide 7, Peptide 5 & Peptide 6 bridged]
- concentration of peptide in the lower chamber in the presence of rhGH (binding to rhGH) (rhGH): substantially reduced

From patent publication US10383919B1, “Fragments of growth hormone binding protein” (The University of the Sciences, priority 2013, dated 2019)
